Experimental data from US20190002846A1, “POLYPEPTIDES HAVING DEMETHYLATING ACTIVITY” (Genencor International B.V., priority 2015, published 2019).

Tests used:
[1] = Conversion of syringic acid, sinapic acid and syringol by crude PPOs, absorbance at 400 nm; format: biochemical; settings: 4 mM substrate, crude PPO 8.2 μg/mL, pH 6.0 or 7.0, 50 μM CuSO4, room temperature, 2, 22 and 118 h
Procedure: Syringic acid, sinapic acid and syringol (4 mM) were incubated with crude PPO2, 4, 6 and 7 from Example 5 in 100 mM BisTris buffer pH 6.0 or 7.0 with 50 μM CuSO4. Crude PPOs were dosed on target protein with a final concentration of 8.2 μg/mL. Substrate blanks prepared without the addition of enzyme and enzyme blanks without the addition of substrate were included. Incubations were performed in microtiterplates with a total reaction volume of 150 μL at room temperature for approximately 120 h. After 2, 22 and 118 h absorbance at 400 nm was measured.

[2] = Catechol oxidase activity assay: initial rate of 3-methoxycatechol oxidation at 400 nm (pH, copper and temperature optima); format: biochemical; settings: for pHopt: 3-methoxycatechol oxidation, room temperature, 10 μM CuSO4, Carmody buffers pH3-9; for T range / pH range: >50% of maximum activity; for [CuSO4] range: >90% of maximum activity; for Topt: A400 after 1 h incubation, 20 to 70° C., 50 mM Bis-Tris pH 7.0, 20 or 50 μM copper; for [CuSO4]opt: at optimal pH, 50 mM Bis-Tris buffer pH 7.0, CuSO4 varied 1-1000 μM
Procedure: PPO activity was determined by measuring the initial rate of 3-methoxycatechol oxidation at 400 nm (extinction coefficient used: ε 1200 M^−1cm^−1). One unit of activity is defined as the amount of PPO activity that oxidizes 1 μmol of 3-methoxycatechol to quinone per minute. Substrate was used at a concentration of 4 mM.
The pH optima were determined by measuring the initial rate of 3-methoxycatechol oxidation with varying pHs, at room temperature and using a CuSO4 concentration of 10 μM. The pH was varied in the range of pH3-9 using Carmody buffers. Enzyme loading was applied resulting in A400 absorbance values in the range of 0.1-1. Protein concentration was determined using the BCA method.
Optimal copper concentrations for the PPOs were determined at the optimal pH by varying the concentration of CuSO4 in the range of 1-1000 μM. In these experiments the pH was controlled using 50 mM Bis-Tris buffer pH 7.0.
Temperature optima were determined by measuring A400 absorbance after 1 h incubation at temperatures in the range of 20 to 70° C. In these experiments the pH was controlled using 50 mM Bis-Tris buffer pH 7.0. Copper concentrations of (20 or 50 μM) were used to prevent chemical oxidation as background activity at higher copper concentrations.

[3] = target: T1, RAC incubated with LPMO9B (Thermothelomyces thermophilus, UniProt G2QCJ3); experiment: RAC hydrolysis assay with LPMO9B and PPO7 or AbTyr in the presence of phenolic reducing agents; format: biochemical, Myceliophthora thermophila; settings: for Activity: total release of non-oxidized and C1-oxidized gluco-oligosaccharides from RAC: LPMO9B alone = 100%, or with added enzyme, pH 5.0, 50° C., 24 h
T1 construct: made in house; host or cells: Myceliophthora thermophila C1 strain W1L#100.1Δpyr5ΔAlp1
T1 sequence (G2QCJ3 19-323): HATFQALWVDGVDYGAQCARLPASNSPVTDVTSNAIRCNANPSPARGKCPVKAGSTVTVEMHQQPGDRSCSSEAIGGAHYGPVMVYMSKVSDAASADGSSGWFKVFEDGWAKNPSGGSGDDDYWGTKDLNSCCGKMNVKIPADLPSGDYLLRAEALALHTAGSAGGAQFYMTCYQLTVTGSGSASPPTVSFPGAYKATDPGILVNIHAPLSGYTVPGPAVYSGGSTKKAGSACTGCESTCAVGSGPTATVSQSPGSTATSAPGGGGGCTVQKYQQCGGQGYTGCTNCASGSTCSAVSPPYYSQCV
Procedure: Phenolic reducing agents were obtained from Sigma-Aldrich (St. Louis, Mo., USA). RAC was prepared as described above and dissolved in 50 mM phospate buffer (pH 5.0) to a final concentration of 1.5 mg/ml. Copper chloride was added to a final concentration of 2.5 μM and a phenolic reducing agent to a final concentration of 2 mM. LPMO9B (5 μg/ml) with or without PPO7 (5 μg/ml) or AbTyr (7.5 U/ml) were added and incubated for 24 h at 50° C. in a head-over-tail rotator in portions of 1 mL total volume (Stuart® rotator, Bibby Scientific LTD, Stone, UK) at 20 rpm. Products were analysed by HPAEC and MALDI-TOF MS as described previously. (Frommhagen M, Sforza S, Westphal A H, Visser J, Hinz S W, Koetsier M J et al. Discovery of the combined oxidative cleavage of plant xylan and cellulose by a new fungal polysaccharide monooxygenase. Biotechnology for Biofuels. 2015; 8:101. doi:10.1186/s13068-015-0284-1). The Activity denoted as Activity * represents total release of non-oxidized and C1-oxidized gluco-oligosaccharides from RAC incubated with LPMO9B in the presence of a phenolic reducing agent and with addition of either AbTyr or PPO7. […] Standard deviations were less than 2%.

[4] = target: T1, RAC incubated with LPMO9B; experiment: RAC hydrolysis assay with LPMO9B and PPO2, PPO7 or AbTyr in the presence of sinapic acid or syringic acid; format: biochemical, Myceliophthora thermophila; settings: for Activity: total release of non-oxidized and C1-oxidized gluco-oligosaccharides from RAC: LPMO9B 5 μg/ml alone = 100%, or with added enzyme, pH 5.0, 50° C., 24 h
Procedure: Reducing agents sinapic acid and syringic acid were obtained from Sigma-Aldrich (St. Louis, Mo., USA). RAC was prepared from Avicel by swelling it in phosphoric acid, (Zhang Y H P, Cui J, Lynd L R, & Kuang L R (2006) A transition from cellulose swelling to cellulose dissolution by o-phosphoric acid: Evidence from enzymatic hydrolysis and supramolecular structure. Biomacromolecules 7(2):644-648.). RAC was dissolved in 50 mM phospate buffer (pH 5.0) to a final concentration of 1.5 mg/ml. Copper chloride was added to a final concentration of 2.5 μM and dimethoxy containg reducing agent sinapic acid or syringic acid to a final concentration of 2 mM. LPMO9B (5 μg/ml) with or without PPO2 (5 μg/ml), PPO7 (5 μg/ml) or AbTyr (7.5 U/ml) were added and incubated for 24 h at 50° C. in a head-over-tail rotator in portions of 1 mL total volume (Stuart® rotator, Bibby Scientific LTD, Stone, UK) at 20 rpm. Products were analysed by HPAEC and MALDI-TOF MS as described previously. (Frommhagen M, Sforza S, Westphal A H, Visser J, Hinz S W, Koetsier M J et al. Discovery of the combined oxidative cleavage of plant xylan and cellulose by a new fungal polysaccharide monooxygenase. Biotechnology for Biofuels. 2015; 8:101. doi:10.1186/s13068-015-0284-1). The Activity denoted as “Activity*” represents total release of non-oxidized and C1-oxidized gluco-oligosaccharides from RAC incubated with LPMO9B in the presence of sinapic or syringic acid as a reducing agent and with addition of either AbTyr, PPO7 or PPO2. […] Standard deviations were less than 2%.

B1: PPO4: Myceliophthora thermophila C1 polyphenoloxidase with demethylating activity, mature form SEQ ID NO: 37 (protein, listed as Myceliophthora thermophila)
chain: DAVLDLQEKGRPAIDAQLAKSTTCTKEKLQVRREWGDISAEEKKAYIAAMLCIMEKPSRLDPNQFPGAKSRYDDFVVVHMNQTLSIHGTGNFLSWHRYYTWVFERALQEECGYNGTQPYWDWGRWADDPENSPIFDGSDTSLSGNGEYIEHRASGFIPAGNGGGCVKSGPFKDMVVHLGPVAPAIDPAPPANPRRDGYGDNPRCLRRDISNQLSSKYARTQDIVDLITTSADIGTFQTVMQGAGGFGVGPGGMGVHAAGHFTIAGDPGGDFYTSPNDPAFWVHHGMIDRTWTIWQSQDLDNRLQVIAGGSSMMGGPPQTLDDPVDLGVVADKVYPIRDLVSVVDGPFCYVYE
- Conversion of substrates (absorbance at 400 nm) [1]: only able to use syringic acid as a substrate
- pHopt [2]: 7.0
- T range [2]: 30-60 °C
- pH range [2]: 5.0-7.5
- [CuSO4] range [2]: 20 to 1000 µM
- Topt [2]: 55 °C
- [CuSO4]opt [2]: 200 µM

B2: PPO6: Myceliophthora thermophila C1 polyphenoloxidase with demethylating activity, mature form SEQ ID NO: 41 (protein, listed as Myceliophthora thermophila)
chain: AVKTVVITATTTVCPLSTRVCHGSSMISQSTNAPCSESTGITGSQSTAVTIPQSTDIISSQFSQFTDTTSSLSTGVACSSSPCPSNSQSTGTTSFESTGTTISQPTAVTNSSSTCLTSSQSTDAPSSESTGITISQSTGVTSSQSMSTPTSKSTAVPSSQSARVSTTSSSAKPSSTTETRPEPTLPNRAYPADIVDKLRDSGVDKLKEYLKSNPSNTGCTLENASIRREWSDLSVAEREEYIAAVKCLQSASPKSSKQQVPGARSRFDDFVATHINQTDSIHYTANFLSWHRYYVWAYEKALREECGYTGFQPYWNWDRYAADPANSPLFSGNSSSLSGNSVNGGCVTTGPFADMKVNLGPGASLAYNPRCLKRNISKSYAAMTTADKTYALITGSADIARFQDTMQAVPGVHAGGHFTIGGDPGGDVYSSPGDPAFWLHHAMIDRVWWIWQTHGLPGRLSEVAGSVAGSSRPGSGKDLVNLGVNGPAVAIENLLNTVGGLDGKMCYIYL
- Conversion of substrates (absorbance at 400 nm) [1]: able to convert syringic acid, sinapic acid and syringol
- pHopt [2]: 7.0
- T range [2]: 20-50 °C
- pH range [2]: 6.0-8.5
- [CuSO4] range [2]: 50 to 1000 µM
- Topt [2]: 30 °C
- [CuSO4]opt [2]: 200 µM

B3: LPMO9B: Myceliophthora thermophila lytic polysaccharide monooxygenase, mature amino acid sequence SEQ ID NO: 93 (protein, listed as Myceliophthora thermophila)
chain: T1 sequence (G2QCJ3 19-323)
- Activity in the absence of a reducing agent ([3]; no reducing agent): no activity was detected
- Activity: total release of non-oxidized and C1-oxidized gluco-oligosaccharides from RAC ([3]; reducing agent 3,4-dihydroxy-5-methoxybenzoic acid 2 mM): 100%
- Activity: total release of non-oxidized and C1-oxidized gluco-oligosaccharides from RAC ([3]; reducing agent 3,4-dihydroxy-5-methoxycinnamic acid 2 mM): 100%
- Activity: total release of non-oxidized and C1-oxidized gluco-oligosaccharides from RAC ([3]; reducing agent 3,4-dihydroxybenzoic acid 2 mM): 100%
- Activity: total release of non-oxidized and C1-oxidized gluco-oligosaccharides from RAC ([3]; reducing agent 3-hydroxy-4-methoxycinnamic acid 2 mM): 100%
- Activity: total release of non-oxidized and C1-oxidized gluco-oligosaccharides from RAC ([3]; reducing agent 3-methylcatechol 2 mM): 100%
- Activity: total release of non-oxidized and C1-oxidized gluco-oligosaccharides from RAC ([3]; reducing agent 4-allyl-2,4-methoxyphenol 2 mM): 100%
- Activity: total release of non-oxidized and C1-oxidized gluco-oligosaccharides from RAC ([3]; reducing agent 4-hydroxy-3-methoxyphenylactone 2 mM): 100%
- Activity: total release of non-oxidized and C1-oxidized gluco-oligosaccharides from RAC ([3]; reducing agent caffeic acid 2 mM): 100%
- Activity: total release of non-oxidized and C1-oxidized gluco-oligosaccharides from RAC ([3]; reducing agent coniferyl aldehyde 2 mM): 100%
- Activity: total release of non-oxidized and C1-oxidized gluco-oligosaccharides from RAC ([3]; reducing agent ferulic acid 2 mM): 100%
- Activity: total release of non-oxidized and C1-oxidized gluco-oligosaccharides from RAC ([3]; reducing agent gallic acid 2 mM): 100%
- Activity: total release of non-oxidized and C1-oxidized gluco-oligosaccharides from RAC ([3]; reducing agent guaiacol 2 mM): 100%
- Activity: total release of non-oxidized and C1-oxidized gluco-oligosaccharides from RAC ([3]; reducing agent hesperidin 2 mM): 100%
- Activity: total release of non-oxidized and C1-oxidized gluco-oligosaccharides from RAC ([3]; reducing agent homovanillic acid 2 mM): 100%
- Activity: total release of non-oxidized and C1-oxidized gluco-oligosaccharides from RAC ([3]; reducing agent vanillic acid 2 mM): 100%
- Activity in the absence of a reducing agent ([4]; no reducing agent): no activity was detected
- Activity: total release of non-oxidized and C1-oxidized gluco-oligosaccharides from RAC ([4]; reducing agent sinapic acid 2 mM): 100%
- Activity: total release of non-oxidized and C1-oxidized gluco-oligosaccharides from RAC ([4]; reducing agent syringic acid 2 mM): 100%
